Laboratory results published in the DeepSol protein solubility set.

Assay: soluble on expression in E. coli; label from the status in PepcDB or PDB records

| Sequence | soluble on expression in E. coli |
| --- | --- |
| MEKYSQVIFDKNTVEFVTVAAEFCGFLERARDMKRYDFVDTALKILPLLYLKATLLPPCEPIGEDEPETFVTEEDYELIRRAIAGVLGAKDDYLEVFLPDMVYSDTPIKKCISEDLADIYQDLKDFISVFQLGLNETMNDSLVVCKEHFREFWGQRLVNTMRALHDVKYSPADDGEEEEMEDENSLLLEHHHHHH | soluble |
| MLYNLAIVIYDLLVHFAAPFSRKPRKMMKGHWVVYELLRQQVEKGEQYIWFHAASLGEFEQGRPLIEMIREKYPDYKILLTFFSPSGYEVRKHYRGADIVCYLPFDKPRNVKKFLDIANPCMAFFIKYEFWKNYLDELHKRRIPVYSVSSIFRRDQIFFKWYGGTYRNVLKDFDHLFVQNEASKRYLSKIGICRVTVVGDTRFDRVLQIREEAKDLPLVKMFKGDNAFTFVAGSSWGPDEDLFLEYFNTHPEMKLIIAPHVIDENHLVEIISKLKRPYVRYTRADEKNVLKVDCLIIDCFGLLSSIYRYGEVAYIGGGFGVGIHNTLEAAVYGIPVIFGPKYQKFMEAIRLLEAKGAYSIKDYHELKTLLDRFQADDVFMRETGANAGYYVTSNAGATEKIMHMINFLEHHHHHH | not soluble |
| MGSDKIHHHHHHMPATFAHCLLAREAMERFGKSKLFPGVLKTKNHFVVMGATGPDYPYLTDVMKYGVLHIGHNWANRMHYENIDGFILEGIKKLSSMNKTSEEFKNCLAWFSGYVSHVVADSYLHPVVNSTVHGIYLFTNEKHGRCELVQDIYIFKKMTDTDICAAAARDRNSFGYLSILDDCSDPQDLDKIHPHIRVFWSELLKAAHPYASDYFGDLNLDEWHKNYKGRVDFAADSQSIFRHVLDIANAPRYVPWTASSISKEERSKYIDNVETPRGTKQSYDTLFSLVADQIAATWNALFPYIKNGQVPPATLVKDWNLDTGVDESKIDFWKEA | not soluble |
| MSLTRLLIRDFRNIETADLALSPGFNFLVGANGSGKTSVLEAIYTLGHGRAFRSLQIGRVIRHEQEAFVLHGRLQGEERETAIGLTKDKQGDSKVRIDGTDGHKVAELAHLMPMQLITPEGFTLLNGGPKYRRAFLDWGCFHNEPGFFTAWSNLKRLLKQRNAALRQVTRYEQLRPWDKELIPLAEQISTWRAEYSAGIAADMADTCKQFLPEFSLTFSFQRGWEKETEYAEVLERNFERDRQLTYTAHGPHKADLRIRADGAPVEDTLSRGQLKLLMCALRLAQGEFLTRESGRRCLYLIDDFASELDDERRGLLASRLKATQSQVFVSAISAEHVIDMSDENSKMFTVEKGKITD | soluble |
| MSQTLKQLAMAKMAGFRHKTVVVPEWEGVKVVLREPSGEAWLRWQEVVKGGGDDENVSVSEKAHRNLCADVVLFIDVLCDTDKQPVFSVDEEEQVREIYGPVHSRLLKQALDLINNADEAREKSQPPA | not soluble |
| MGHHHHHHHHHHSSGHIEGRHMEANGLGPQGFPELKNDTFLRAAWGEETDYTPVWCMRQAGRYLPEFRETRAAQDFFSTCRSPEACCELTLQPLRRFPLDAAIIFSDILVVPQALGMEVTMVPGKGPSFPEPLREEQDLERLRDPEVVASELGYVFQAITLTRQRLAGRVPLIGFAGAPWTLMTYMVEGGGSSTMAQAKRWLYQRPQASHQLLRILTDALVPYLVGQVVAGAQALQLFESHAGHLGPQLFNKLALPYIRDVAKQVKARLREAGLAPVPMIIFAKDGHFALEELAQAGYEVVGLDWTVAPKKARECVGKTVTLQGNLDPCALYASEEEIGQLVKQMLDDFGPHRYIANLGHGLYPDMDPEHVGAFVDAVHKHSRLLRQN | soluble |
| MGSDKIHHHHHHMLTWRKHGLIYSPQAHPPLIGGAGYAQSPQALVFDDFVRIYFSTRELDDKNNKFISRVSYVDMDKNLQEILKVSAAPVIAHAELGTFDEHGIFPFNVLRHNGAVMAWTTGWNRRVSVSVDTSIGLAISHDGGDTFQRHATGPVMSASLHEPYLVGDAFVQHIEGRFHMWYIYGVGWKRQQSDSPPDRIYKIAHAVSDDGIDWVRESKPIIADLLGDDECQALPTVIKVGNRYHMIFCYRECFDFRLGSGRGYRLGYAWSDDLVTWHRDDTQVPAVSESGEWDSEMQCYPHLFQCDEKVYLLYNGNAFGKEGFGLAELTACSE | not soluble |
| GMRKDDVVIVTCAITGAIHTPSMSPYLPVTPDQIVEEAVKAAEAGAGMVHIHARDPKDGRPTTDVEVFRYICREIKKQSDVVINVTTGGGGTLGIPVEERAKVVPALKPEIATFNMGSMNFAIHPLLKKYKEFKYDWEPEYLEMTRDIVFRNTFKDLEALSRIFKENDTKPELECYDIGQIYNTAFMFHEGYLEPPLRLQFIHGILGGIGTAVEDVLFMKQTADRLIGRENYTWSLVGAGRFQMPLGTLAVIMGGDVRVGLEDSLYIERGKLAKSNAEQVEKMVRIVKELGKRPATPDEVREILGLKGKERVNF | soluble |
| MSLAKAYDHLFKLLLIGDSGVGKTCLIIRFAEDNFNNTYISTIGIDFKIRTVDIEGKKIKLQVWDTAGQERFKTITTAYYRGAMGIILVYDITDEKSFENIQNWMKSIKENASAGVERLLLGNKCDMEAKRKVQKEQADKLAREHGIRFFETSAKSSMNVDEAFSSLARDILLKSGGRRSGNEGHHHHHH | soluble |
| MNEVLRQEKKYLISLEDYYLLSKKFSQVMTLDSHSSDDGYTIRSLYFDSLEDVDWQEKEDGVEIRRKIRLRNYGSQSNFAKLEMKQKQGANQKKRSLKLSKTDAQALINGNNSVLLNYPDTFAAECYSRITTQLYQPKTVIEYQRKAFVAKENNIRITFDHHIIGTEASYDIFSEDLNQNYLLDPYLVILEVKYNGFLLSYIKELLDSVDRSELSASKYCLGRAVSKHYRFLEHHHHHH | not soluble |
| MIRLVIVEPEGSYNLGFISRLAKNFLVDELYIVNPHCDLEEAKKFSAKGLEYLEKAKIVNNFDEAIKDVELKIATSSIADIKGDILRKSIRPWELPRIIEGKKVALIFGRESVGLTREEIAKSDLLLFIPGNPEYPVLNLSHAVGIVLYEIWKSRGENKPVISGEAISLIDKYSRDLVNLIKSNEGDEAMYIALKRALIKGIGDEEEARTIIRLLRKLYIKLTRKIE | soluble |
| MEEWPALQWSQGTPASGPALQALEEYAFVPRDDESRQGIRTDALLVIRDGRLLYERYAGATGPQTPHLAWSASKSLLAVLLGVAFGEGRFQLQDPAAKFYPPLEAHPDITLADLLHWASGLDWQEDYEYAPLNSSVVAMLYTRGHRDMAAFTVQQAASGPPGQVFRYSSGDSNLLAASLRGMVGEGQYADYPWRALFEPLGITQAVWERDAAGTFVASSYLYLTARDLARIGLLMQRDGRWRDRQLLPKAWVEFCRTPFRGYRANQDVAVAGGHWWLNREVDGAPRPWPDAPADTYAALGHWGQALYVLPAQRLVIVRYGDDRDGSYQHNELLKRVLAAFATPEQPLEHHHHHH | not soluble |
| PISNIFAGLLFYVLSDYVTEDTGIRITRAELEKTIVEHGGKLIYNVILKRHSIGDVRLISCKTTTECKALIDRGYDILHPNWVLDCIAYKRLILIEPNYCFNVSQKMRAVAEKRVDCLGDSFENDISETKLSSLYKSQLSLPPMGELEIDSEVRRFPLFLFSNRIAYVPRRKISTEDDIIEMKIKLFGGKITDQQSLCNLIIIPYTDPILRKDCMNEVHEKIKEQIKASDTIPKIARVVAPEWVDHSINENCQVPEEDFPVVNY | soluble |
| GPGSMADSIKKHFQQENEVKDTGCMTSALSYLPIYINTDKLPENMLVGAPLFYPPQMAVLPLSWTDAVGFERSCFITCEGPFPHMTANGKDPHDMSFFFLQYMQRVPFMQSTAERGLPIKQLQDVGLLCCTDAFSHIVTDPAERVVVIFGRNGPYFTSLVITPCTMPEKNVVGNIQLANQISLQDLQKLLDACCPTPLVDEIRLAGTSAGTLQGKLHIACRYGNRVVQFTAASALTVRSARDNEDFIFSLEGDVLAQKRIVFDAATIDALISGKTLDELFSCPGPQCMRVSSLVQLIHMEDLTEISHNLGNGASNGDVTREINLKVSGSRLLLSAGEVSVVFHHAHLGVHFPINSHHGVICEPVLTTDLCLMYYPLGSTAALPNAMMRRVRQLPPTWERSLHTDDALRHNALFHFTDWMRGSVPCITCDLSGFRCAQLYEEKDGMSCRTYVVPLAEEIMVLRWETSTCDWEQHLPHLQKFIDTLHLEVPTA | not soluble |
| MGSDKIHHHHHHMKYMIGIDGGGTKTEAIAFDKDGNELVRATSGFGNILIDFEEALVHIMEAIDQCQKGVLNEHCVCICLGLAGVSGVNTNELTLRLKKKYGTPIEVFNDAMIAHAAVLKGKDGILTIGGTGTICLGKKGEVYEYSGGWGHILGDAGSGYWIGLQALKRMANQLDQGIRLCPLSLRIQDEFQLLTASHIKRLVYRSSKDKVAAITPFVIREARNGNDAAHEIMMQAGKELARITIDVYNKMQLDLLVSIAVSGSILRFVPEIYDEFKKCCEKSVGEVTFVLQSEPAVKGTYYLMKNMYFKK | not soluble |
| MIIKRNDMAPSVKAGDAILFYRLSQTYKVEEAVVYEDSKTSITKVGRIIAQAGDEVDLTEQGELKINGHIQNEGLTFIKSREANYPYRIADNSYLILNDYYSQESENYLQDAIAKDAIKGTINTLIRLRNH | not soluble |
| MKAIIISIGDELLKGHRVNTNAPFIARELGNIGIPVTRIITCSDDPQAIRDSVTLALTEAEAVFVTGGLGPTNDDRTRDAVRALLGRGLALDEPSFERIADYFRRRNRPVTEVMKDQAMVIEGSIAIPNTKGTAPGMIIECAPRFAGRHLVLMPGVPAEMEAMMRLTVVPFFAPLSGAFIRHTPVMTMGIGETQLADMIVEVEDSLPSGTTLAYLPHAAGVSLMVSTSGA | not soluble |
| MKQCAHTKVWQTIVAEAREQAEQEPMLASFYHATIIKHDSLKAALSYILANRLNTASMPAMAVREVIEEAFAADPSISEAAACDICATVNRDPAVSMYSMPLLYLKGYHALQGYRVANWLWRQGRKALATYFQNQISVACQVDIHPAARIGRGIMLDHATGIVIGETAVVEDDVSILQDVTLGGTGKECGDRHPKIREGVMIGAGAKILGNIEVGEGAKIGSGSVVLQAVPPHTTVAGVPARIVGRPQSDKPSLDMDQQFNGRSQTFIGGDGI | not soluble |
| MEPADEPSELVSAEGRNRKAVLCQRCGSRVLQPGTALFSRRQLFLPSMRKKPALSDGSNPDGDLLQEHWLVEDMFIFENVGFTKDVGNIKFLVCADCEIGPIGWHCLDDKNSFYVALERVSHE | soluble |
| MLKGIPKIIPPELLKVLCEMGHGDQLVIADGNFPAESIGKNAIVVRMDGHGGGEILKAILTVFPLDTYVDKPATLMEKVPGDTVATPIWDVYAGLIKEHDERGADAIGSLERFAFYEQAKNAYCVIASGESAQYANLILQKGVVFNAE | soluble |
| MYDAIVVGGGFSGLKAARDLTNAGKKVLLLEGGERLGGRAYSRESRNVPGLRVEIGGAYLHRKHHPRLAAELDRYGIPTAAASEFTSFRHRLGPTAVDQAFPIPGSEAVAVEAATYTLLRDAHRIDLEKGLENQDLEDLDIPLNEYVDKLDLPPVSRQFLLAWAWNMLGQPADQASALWMLQLVAAHHYSILGVVLSLDEVFSNGSADLVDAMSQEIPEIRLQTVVTGIDQSGDVVNVTVKDGHAFQAHSVIVATPMNTWRRIVFTPALPERRRSVIEEGHGGQGLKILIHVRGAEAGIECVGDGIFPTLYDYCEVSESERLLVAFTDSGSFDPTDIGAVKDAVLYYLPEVEVLGIDYHDWIADPLFEGPWVAPRVGQFSRVHKELGEPAGRIHFVGSDVSLEFPGYIEGALETAECAVNAILHSHHHHHH | soluble |
